System: alpha-lactalbumin
Test: Monolith mediated proteolysis with covalently grafted proteinase K, HPLC
Type: biochemical
Conditions: 65 °C for 2 hrs plus 30 minutes; HPLC (Figure 4)
Protocol: 160 mg/mL EDAC stock was dissolved in dry DMSO. 35 µL of this stock was added to 15 µL of 200 mM MES pH 7.0 and 20 µL 10mg/mL Proteinase K in PBS. The solution was added to a 20 mg disc carboxy monolith polymeric matrix (1:2:1 TEGDMA:EGDMA:HEMA plus 2.0% MAA). The disc was incubated for 1 hr at room temperature. The reaction was then quenched with 5 µL of 30 mg/mL glycine, pH 7.0 for 15 minutes at room temperature. The disc was then washed 3x in 1x PBS and held in 1X PBS for 4 days at 4 °C.
Alpha-lactalbumin substrate was dissolved at 10 mg/mL in 1x PBS. The proteinase K coupled disc was cut into equal 8 pie-shaped pieces. For each assay, one pie piece was placed point side down into a 0.5 mL microfuge tube. For each tube, 27 µL 10mg/mL lactalbumin solution or 1X PBS, 3 µL 5mM CaSO4, was added. The tubes were closed and incubated at 65 °C for 2 hrs. An additional 50 µL deionized distilled water, was added, the tubes closed, and incubated at 65 °C for an additional 30 minutes.

B1: proteinase K: Proteinase K covalently grafted with EDAC to carboxy monolith disc (1:2:1 TEGDMA:EGDMA:HEMA plus 2.0% MAA) (conjugate, UniProt P06873 106-384, looked up)
Proteinase K: AAQTNAPWGLARISSTSPGTSTYYYDESAGQGSCVYVIDTGIEASHPEFEGRAQMVKTYYYSSRDGNGHGTHCAGTVGSRTYGVAKKTQLFGVKVLDDNGSGQYSTIIAGMDFVASDKNNRNCPKGVVASLSLGGGYSSSVNSAAARLQSSGVMVAVAAGNNNADARNYSPASEPSVCTVGASDRYDRRSSFSNYGSVLDIFGPGTSILSTWIGGSTRSISGTSMATPHVAGLAAYLMTLGKTTAASACRYIADTANKGDLSNIPFGTVNLLAYNNYQA
modifications: EDAC-grafted to carboxy monolith disc
Q: For B1, which degradation of alpha-lactalbumin is on record?
A: fully degraded

— patent EP3221371B1, “MONOLITHS” (Monolythix, Inc., priority 2014, dated 2016)
